The experiment addresses K62-HA (K62 killer toxin with a C-terminal hemagglutinin tag), expressed by S. cerevisiae (Saccharomyces paradoxus).

Regarding “K62-HA (K62 killer toxin with a C-terminal hemagglutinin tag), expressed by S. cerevisiae (natural protein)”, the stoichiometry N was 2.
